Measurements reported in patent publication US11733246B2, “Compositions, imaging, and therapeutic methods targeting folate receptor 1 (FOLR1)” (Indi Molecular, Inc., priority 2020, dated 2023).
Where “and” joins values, the source holds several entries; their conditions need not be identical. Equal entries are not always repeated. Numbered stars: 1 amine (or outer) side, 2 acyl side, 3 side chain; on linkers, the order of the positions; unused ones are H or OH. Bridge positions count the residues as written; N and C are the ends. Square brackets hold non-standard residues; d marks the D form. Triazole bridges read from a SMILES are 1,4-linked. Peptide text beside a SMILES is read from it. * marks the point of attachment. DOTA = O=C(O)CN1CCN(CC(=O)O)CCN(CC(=O)*)CCN(CC(=O)O)CC1; Pteroyl = Nc1nc2ncc(CNc3ccc(C(=O)*)cc3)nc2c(=O)[nH]1; Butanoyl(4-(4-MePh)) = Cc1ccc(CCCC(=O)*)cc1; Lys(N3) = [N-]=[N+]=NCCCC[C@H](N)C(=O)O; γGlu = O=C(O)[C@H](CCC(=O)[*:2])N[*:1]; AEEEA = NCCOCCOCCOCC(=O)O; Pra = C#CC[C@H](N)C(=O)O

Legend:
[1] = mouse, in vivo
Experimental: At endpoint, mice were sacrificed and plasma and tissues (tumor, kidney, liver, lung, muscle) were collected. Plasma samples were assayed for urea and creatinine biomarkers indicative of nephrotoxicity. Tissue samples were fixed in 10% buffered formalin, transferred to 70% ethanol, and embedded in paraffin for immunohistochemistry.
The heterobiligand dosed in these studies is Folate-hshta-PEG3-Lys(MPBA)-Lys(DOTA) (Compound #2809; SEQ ID NO:6)) labeled with ^177Lu. Plasma samples taken from tumor-bearing mice (at each dose) were assayed for biomarkers indicative of nephrotoxicity. These samples were compared to plasma taken from normal mice. Elevated urea levels in plasma could indicate kidney damage. Endogenous urea is converted to ammonia and carbon dioxide by the addition of urease. Berthelot's reagent reacts with the dissolved ammonia. The resulting green coloration can be used to back-calculate the amount of urea present in the original plasma sample.
Mouse plasma samples (five mice each from the 0 MBq control group, 3.7 MBq group, and 9.25 MBq group) taken at endpoint and normal mouse plasma were evaluated in urea assays to gain information on renal function. […]
In order to understand the toxicity-limiting tissues and organs, plasma was collected from the therapy studies and analyzed for blood urea nitrogen (BUN) and creatinine. […]

OVCAR3 xenografts = assay: 177Lu FOLR1 radioligand therapy in OVCAR3 xenograft model; format: in vivo, mouse
Experimental: Water and food were provided ad libitum. […] Tumor growth was monitored by caliper measurements.
OVCAR3 tumor bearing mice were used to study FOLR1-directed radioligand therapy (RLT) for treatment of ovarian cancer. Animals were administered a single dose of heterobiligand (vehicle control) or 111, 37, 18.5, 9.25, or 3.7 MBq [^177Lu]DOTA-labeled heterobiligand. Mice received the dose intravenously (i.v.) via the tail vein. To monitor the effect of the RLT, tumor size measurements were taken twice weekly and body weights were measured.
The engraftment was allowed to expand until palpable tumor sizes ranging in size from 218-384 mm^3 were detected. […] These observed effects were consistant with radiation overdosing. […] The best response was observed using 9.25 MBq Lu-177 Heterobiligand (compound #2809).
Single dose treatments at 18.5 MBq/nmol specific activity. OVCAR3 mouse model was used. 10^7 cell tumors were implanted in the mice one month before administration of ^177Lu-#6305. Five mice each were administered Cold #6305, 9.25 MBq Lu177-#6305, and 14.8 MBq Lu177-#6305, and two mice were administered 29.6 MBq Lu177-#6305. Tumor growth and body weight were then monitored.
Female NSG mice were implanted subcutaneously with OVCAR3 cells. Once tumors reached volumes of 200 mm^3, the animals were treated with 177-Lu 7327. Three treatment arms of 9.25 MBq, 14.8 MBq, and 29.6 MBq were studied.
Female NSG mice were implanted subcutaneously with human OVCAR3 (FOLR+) ovarian cancer cells. Once tumors reached volumes of 200 mm^3, the animals were treated with Indi ^177Lu-7327. One treatment arm of 74 MBq and a control group of 0 MBq were studied (FIGS. 41 and 38A). […] The second dose was administered 21 days following the first dose. Statistically significant differential between treated and control was reached 24 days post-injection (three days following the second dose) for the 74 MBq arm. P values (* for p≤0.05, ** for p≤0.01) were determined by ordinary one-way ANOVA with Tukey's multiple comparisons test.

Cc1ccc(CCCC(=O)NCCCC[C@H](NC(=O)COCCOCCOCCNC(=O)[C@@H]2CCCCn3cc(nn3)C[C@H](NC(=O)CC[C@H](NC(=O)c3ccc(NCc4cnc5nc(N)[nH]c(=O)c5n4)cc3)C(=O)O)C(=O)N[C@H](Cc3c[nH]cn3)C(=O)N[C@H](CO)C(=O)N[C@H](Cc3c[nH]cn3)C(=O)N[C@H]([C@H](C)O)C(=O)N[C@H](C)C(=O)N2)C(=O)N[C@@H](CCCCNC(=O)CN2CCN(CC(=O)O)CCN(CC(=O)O)CCN(CC(=O)O)CC2)C(N)=O)cc1 [^177Lu-#2809, metal not drawn] ({Pteroyl-γGlu}-[Pra][dH][dS][dH][dT][dA][Lys(N3)][AEEEA]K(Butanoyl(4-(4-MePh)))K(DOTA)-NH2; triazole 1-7)
BUN level relative to normal mice [1]: 1.5 times
Comments (deaths / survival) (OVCAR3 xenografts; ^177Lu dose 0 (peptide alone), 3 mice): Sacrificed on day 24
Comments (deaths / survival) (OVCAR3 xenografts; ^177Lu dose 0.1 mCi (3.7 MBq), 2 mice): Sacrificed on day 24
Comments (deaths / survival) (OVCAR3 xenografts; ^177Lu dose 0.25 mCi (9.25 MBq), 2 mice): Sacrificed on day 24
Comments (deaths / survival) (OVCAR3 xenografts; ^177Lu dose 0.5 mCi (18.5 MBq), 2 mice, listed as DOTA-Heterobiligand Albumin binder conjugate): 1 mouse died on day 10 and 1 mouse died on day 13
Comments (deaths / survival) (OVCAR3 xenografts; ^177Lu dose 1 mCi (37 MBq), 2 mice): 2 mice died on day 10
Comments (deaths / survival) (OVCAR3 xenografts; ^177Lu dose 3 mCi (111 MBq), 3 mice, listed as DOTA-Heterobiligand Albumin binder conjugate): 1 mouse died on day 5 and 2 mice died on day 4
